Experimental data as given in patent publication US20240076406A1, “SINGLE DOMAIN ANTIBODIES TARGETING CA-IX AS WELL AS COMPOSITIONS COMPRISING SAME” (National Research Council of Canada, priority 2021, published 2024).
Where two headings read alike, the source gives them in different places.

Columns and labels:
[1] = target: T1, purified hCA-IX ECD dimer (Homo sapiens, UniProt Q16790); assay: In vitro rhCA-IX enzyme activity inhibition (4Mu-Ac hydrolysis); type: biochemical; settings: for IC50: 4Mu-Ac substrate; for inhibition of hCA-IX enzyme activity, in words: hCA-IX dimer, 4Mu-Ac hydrolysis
T1 construct: in vitro enzyme activity assay using purified hCA-IX ECD dimer
Experimental: In vitro rhCA-IX enzyme activity inhibition. In order to examine the functional consequence of the binding of the two sdCA9-VHH antibodies to hCA-IX ECD, antibodies were tested in an in vitro enzyme activity assay using purified hCA-IX ECD dimer and 4-Methylumbelliferyl acetate (4Mu-Ac) as substrate.

[2] = target: T2, dimeric CA-IX (Homo sapiens, UniProt Q16790); assay: SPR binding affinity, VHH format, dimeric CA-IX; settings: SPR data (FIG. 3A); monomer or dimer not specified
T2 construct: to the dimeric extracellular domain (ECD) of hCA-IX
Experimental: FIG. 3A is a graph showing the binding kinetics determined by surface plasmon resonance (SPR) for 3 CA-IX single domain antibodies (sdCA9-1, -2, -3-VHH) to the dimeric extracellular domain (ECD) of hCA-IX.
In vitro binding affinity/SPR. To evaluate the binding affinity (KD) of the VHH only format of the […] single domain antibodies, CA-IX monomer and dimer were immobilized on SA sensor chip (GE Healthcare) and serial dilutions of the sdAbs were injected over the surface (FIG. 3A). […] The two single domain antibodies sdCA9-1-VHH and sdCA9-2-VHH were selected for further characterizations.

[3] = tested on: cyno CA-IX; assay: ELISA species cross reactivity, cynomolgus monkey CA-IX; type: binding; settings: 500 nM sdCA9-VHH
Experimental: (§1) Binding above background was measured in an ELISA assay for the binding of 500 nM of sdCA9-VHH antibodies to human CA-II, CA-IV, CA-IX, CA-XII and CA-XIV (isoform cross reactivity, upper panel), then CA-IX for mouse, human, cynomolgus monkey and dog (species cross reactivity, lower panel). (sdCA9-1-VHH ( ? ) and sdCA9-2-VHH ( ? )
(§2) Cross reactivity and CA-IX specificity. Binding specificity and species cross reactivity of two sdAb were tested in an ELISA assay using purified proteins for human, mouse, cynomolgus monkey and dog CA-IX.

[4] = tested on: 67NR^hCA-IX derived spheroids; assay: Spheroid growth inhibition, 67NR^hCA-IX; type: cell-based, mouse; settings: for spheroid growth, different concentrations: monitored for 8 days, compared with 67NR derived spheroids
Excerpt: (§3) Spheroid growth inhibition.

[5] = target: human CA-IX (Homo sapiens, UniProt Q16790); assay: ELISA species cross reactivity, human CA-IX; type: binding; settings: 500 nM sdCA9-VHH
Experimental: as §1, §2

[6] = target: dog CA-IX (Canis lupus familiaris, UniProt A0A8I3NCN1); assay: ELISA species cross reactivity, dog CA-IX; type: binding; settings: 500 nM sdCA9-VHH
dog CA-IX, sequence (A0A8I3NCN1 38-461): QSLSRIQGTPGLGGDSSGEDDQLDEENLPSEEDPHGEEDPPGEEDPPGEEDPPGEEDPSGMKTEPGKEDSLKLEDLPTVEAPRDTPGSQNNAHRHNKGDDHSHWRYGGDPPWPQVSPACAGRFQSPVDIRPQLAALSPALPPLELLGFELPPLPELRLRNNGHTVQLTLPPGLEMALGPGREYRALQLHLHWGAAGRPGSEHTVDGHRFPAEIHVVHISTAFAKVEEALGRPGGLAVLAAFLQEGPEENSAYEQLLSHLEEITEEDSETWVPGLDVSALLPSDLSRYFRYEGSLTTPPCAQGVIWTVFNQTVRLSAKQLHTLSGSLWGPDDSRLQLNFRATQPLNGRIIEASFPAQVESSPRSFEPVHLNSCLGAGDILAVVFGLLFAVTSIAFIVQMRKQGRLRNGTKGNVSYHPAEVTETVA
Experimental: as §1, §2

[7] = target: mouse CA-IX (Mus musculus, UniProt Q8VHB5); assay: ELISA species cross reactivity, mouse CA-IX; type: binding; settings: 500 nM sdCA9-VHH
mouse CA-IX, sequence (Q8VHB5 32-437): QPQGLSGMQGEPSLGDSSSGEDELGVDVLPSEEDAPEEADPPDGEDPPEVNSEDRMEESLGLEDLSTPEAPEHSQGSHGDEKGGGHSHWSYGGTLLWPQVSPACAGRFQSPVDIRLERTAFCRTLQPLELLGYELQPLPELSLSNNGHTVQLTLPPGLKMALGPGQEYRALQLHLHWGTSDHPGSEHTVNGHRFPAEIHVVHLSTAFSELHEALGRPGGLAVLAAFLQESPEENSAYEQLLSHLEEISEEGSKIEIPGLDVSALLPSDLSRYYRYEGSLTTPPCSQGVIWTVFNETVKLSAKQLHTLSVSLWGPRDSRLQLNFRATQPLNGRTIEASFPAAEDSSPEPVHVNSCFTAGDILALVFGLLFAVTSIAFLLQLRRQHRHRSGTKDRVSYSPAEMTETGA
Experimental: as §1, §2

[8] = tested on: hCA-IX negative parental 67NR spheroids; assay: Spheroid growth inhibition, parental 67NR; type: cell-based, mouse; settings: hCA-IX negative cells
Excerpt: as §3

[9] = [inhibitor] vs. normalized response - variable slope
[10] = [inhibitor] vs. normalized response - variable slope, read-out: IC50 (best fit value)

| Molecule | HillSlope (best fit value) [1, 9] | IC50 [1, 10] [nM] | inhibition of hCA-IX enzyme activity, in words [1] | binding to CA-IX by SPR, in words [2] | binding to cyno CA-IX [3] | growth of spheroids over time ([4]; 100 μg/mL) | spheroid growth, different concentrations [4] | binding to human CA-IX [5] | IC50 ([1]; hCA-IX-ECD dimer, read-out: IC50 values) [nM] | binding to dog CA-IX [6] | binding to mouse CA-IX [7] | effect on parental 67NR spheroids [8] |
| --- | --- | --- | --- | --- | --- | --- | --- | --- | --- | --- | --- | --- |
| sdCA9-2-VHH: llama single domain antibody (VHH) binding CA-IX catalytic domain, amino acid sequence SEQ ID NO: 5 (protein, Amino acid sequence for sdCA9-2-VHH) VHH: QVKLEESGGDLVQPGGSLRLSCAASGFTLDYYAIGWFRQAPGKEREGVSCFSSVDGSTYYADSVKGRFTISRDNAKNMVYLQMNSLKPEDTAIYYCAAELYGELGVATVQAMCRLTTPGGDYWGQGTQVTVSS | −0.2974 | 48.4 | inhibited the hCA-IX enzyme activity to similar levels achieved by SMI U104 | bind with high affinity | selectively binds | specifically inhibits the growth of 67NR^hCA-IX spheroids over time | inhibited spheroid growth in a dose-dependent manner | selectively binds |  |  |  |  |
| sdCA9-1-VHH: llama single domain antibody (VHH) binding CA-IX catalytic domain, amino acid sequence SEQ ID NO: 1 (protein, Amino acid sequence for sdCA9-1- VHH) VHH: QVQLVESGGGLVQAGGSLRLSCAASGFTFDDWAIGWFRQAPGKEREGVSCISKRHGTTHYADSVKGRFTISSDNAKNTVYLRMNGLKPEDTAVYYCAASSWGSCTVATMRDVDRYDYDYWGQGTQVTVSS | −0.1194 | 111 | only partially | bind with high affinity | binds |  | seemed not to be specific | binds | ~100 | binds | binds | hCA-IX non-specific phenotype |
| sdCA9-3-VHH: llama single domain antibody (VHH) binding CA-IX, amino acid sequence SEQ ID NO: 9 (protein, A 118 amino acid sequence for CA9-3-VHH) VHH: QVQLVESGGGLVQAGDSLRLSCAASGGTFSRYGMGWFRQAPGKEREFVAAISGTGLNTYYMDSVKGRFTISRDNAENTVYLQMNSLKPEDTAVYYCARDRGGVEYDYWGQGTQVTVSS |  |  |  | binds with high affinity but less so than the other two |  |  |  |  |  |  |  |  |
